Ends that are not written are not given here. * marks the point of attachment. Biotin = O=C1N[C@H]2[C@H](CS[C@H]2CCCCC(=O)*)N1
Columns and labels:
Test in all cases: peptide or protein array; E. coli proteome chip: purified His-tagged proteins printed in duplicate on Fullmoon slides, blocked with 1% BSA; 10 nM N-terminal biotinylated LfcinB with 1% BSA, room temperature, 1 h; detected with DyLight 649-labeled streptavidin, ratio to DyLight 549-labeled anti-His antibody; ProCAT normalisation, local cut-off; triplicate chips
Conditions in all cases: both partners purified
YnhE = target: T1, YnhE (E. coli K-12, UniProt P77522 1-495)
T1 construct: YnhE, E. coli K-12
T1 sequence (looked up): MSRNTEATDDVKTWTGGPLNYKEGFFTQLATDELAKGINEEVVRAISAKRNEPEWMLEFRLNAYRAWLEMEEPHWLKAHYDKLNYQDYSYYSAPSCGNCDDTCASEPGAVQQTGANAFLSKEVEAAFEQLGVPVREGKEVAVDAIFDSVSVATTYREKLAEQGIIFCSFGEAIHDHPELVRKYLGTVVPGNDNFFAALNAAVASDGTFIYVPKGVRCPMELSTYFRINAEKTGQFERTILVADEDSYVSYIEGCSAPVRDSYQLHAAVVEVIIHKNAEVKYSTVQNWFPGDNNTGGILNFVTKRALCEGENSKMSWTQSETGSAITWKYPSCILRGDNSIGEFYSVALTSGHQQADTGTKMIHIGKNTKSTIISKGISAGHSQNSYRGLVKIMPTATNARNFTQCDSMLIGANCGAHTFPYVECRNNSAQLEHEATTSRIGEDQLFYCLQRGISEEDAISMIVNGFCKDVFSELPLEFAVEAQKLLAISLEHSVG

NrdD = target: T2, NrdD (E. coli K-12, UniProt P28903 1-712)
T2 construct: NrdD, ribonucleotide reductase family, E. coli K-12
T2 sequence (looked up): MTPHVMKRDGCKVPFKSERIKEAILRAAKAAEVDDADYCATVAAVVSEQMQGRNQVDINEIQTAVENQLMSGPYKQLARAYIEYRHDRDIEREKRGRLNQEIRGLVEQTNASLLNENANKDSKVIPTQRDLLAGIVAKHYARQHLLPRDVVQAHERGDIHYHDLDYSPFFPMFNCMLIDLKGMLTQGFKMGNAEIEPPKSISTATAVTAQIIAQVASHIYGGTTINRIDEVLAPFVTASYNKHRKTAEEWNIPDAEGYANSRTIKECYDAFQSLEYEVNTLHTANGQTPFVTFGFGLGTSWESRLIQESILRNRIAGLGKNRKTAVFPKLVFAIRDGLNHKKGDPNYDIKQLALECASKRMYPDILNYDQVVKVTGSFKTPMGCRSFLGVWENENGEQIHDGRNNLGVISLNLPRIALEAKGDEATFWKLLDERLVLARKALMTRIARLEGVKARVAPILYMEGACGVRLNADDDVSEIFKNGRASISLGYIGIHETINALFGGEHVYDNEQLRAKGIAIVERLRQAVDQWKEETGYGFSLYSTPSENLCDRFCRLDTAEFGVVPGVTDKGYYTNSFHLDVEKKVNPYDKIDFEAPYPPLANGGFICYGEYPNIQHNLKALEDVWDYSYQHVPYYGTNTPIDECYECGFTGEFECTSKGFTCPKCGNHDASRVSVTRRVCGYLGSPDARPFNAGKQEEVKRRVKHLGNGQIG

HolC = target: T3, HolC (E. coli K-12, UniProt P28905 1-147)
T3 construct: HolC, E. coli K-12

HemK = target: T4, HemK (E. coli K-12, UniProt P0ACC1 1-277)
T4 construct: HemK, E. coli K-12
T4 sequence (looked up): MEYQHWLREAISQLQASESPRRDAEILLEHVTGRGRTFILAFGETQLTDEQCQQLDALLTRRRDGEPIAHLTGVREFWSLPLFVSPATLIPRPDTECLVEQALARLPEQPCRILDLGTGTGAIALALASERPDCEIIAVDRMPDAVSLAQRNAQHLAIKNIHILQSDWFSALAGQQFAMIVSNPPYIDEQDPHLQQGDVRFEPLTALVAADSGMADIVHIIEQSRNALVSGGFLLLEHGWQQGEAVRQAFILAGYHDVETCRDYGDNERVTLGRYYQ

YihI = target: T5, YihI (E. coli K-12, UniProt P0A8H6 1-169)
T5 construct: YihI, E. coli K-12
T5 sequence (looked up): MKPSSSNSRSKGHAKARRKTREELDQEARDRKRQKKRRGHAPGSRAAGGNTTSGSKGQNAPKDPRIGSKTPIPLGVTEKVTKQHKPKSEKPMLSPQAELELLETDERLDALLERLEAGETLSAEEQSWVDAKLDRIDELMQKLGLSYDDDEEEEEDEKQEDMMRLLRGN

Measured: binding result

T3 sequence (P28905 whole entry): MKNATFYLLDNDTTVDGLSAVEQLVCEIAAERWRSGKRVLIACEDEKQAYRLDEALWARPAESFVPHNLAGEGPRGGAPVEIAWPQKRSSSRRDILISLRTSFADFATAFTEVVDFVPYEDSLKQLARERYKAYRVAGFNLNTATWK

B1: N-terminal biotinylated Lactoferricin B (peptide, UniProt P24627 36-60, looked up)
peptide: Biotin-FKCRRWQWRMKKLGAPSITCVRRAF
modifications: ends and bridges not checked
notes: lactoferricin B (LfcinB), cationic antimicrobial peptide of 25 amino acids; also called biotinylated LfcinB; biotin-labeled LfcinB; source: bought: Kelowna Inc
binds: all assays above
